Laboratory results taken from patent US20240182556A1 (OPSIDIO, published 2024).
Where a chain is given by its changes, count along the chain named. In names and notes the source's numbering stands.

T1: exon 6 peptide (ASSLRNDSSSSNRKAKNPPGDS), coated on ELISA plate (not fully specified)
T1 construct: No biotin is mentioned for the ELISA coat; also called a peptide of SCF248
T1 peptide: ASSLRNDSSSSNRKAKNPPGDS

T2: PE9413, C-terminal biotinylated peptide mapping on Exon6 of the SCF molecule (SCF248) (C-terminal biotin)
T2 construct: also called C-terminal biotinylated PE9413; C-ter PE9413
T2 peptide: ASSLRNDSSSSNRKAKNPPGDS

B1: 5H10 VK3/VH1 humanized antibody of Table 1 (antibody, V domains shown)
VH: QVQLVQSGAELKKPGSSVKISCKSSGYAFSSYWMNWVKQRPGQGLEWIGQIYPGDGDTHYNGKFKGKATLTADKSTSTAYMELSSLTSEDSAVYFCSSSNWVGSYWGQGTLVTVSS
VL: DVVMTQSPLSLPVTLGQPASISCKSSQSLLESDGKTYLNWLQQRPGQSPRRLIYLVSRLDSGVPDRFSGSGSGTDFTLKISRVEAEDVGVYYCWQGTHLPQTFGGGTKVEIK
B2: H74P mutant expressed as full length IgG4 antibody (antibody, V domains shown)
VH: B1 VH with Y32Q, G54E
VL: B1 VL with S32E, K35N, S57D, S61L, T97S
notes: Full length IgG4
B3: A64P mutant expressed as full length IgG4 antibody (antibody, V domains shown)
VH: B1 VH with Y32N, G54E
VL: B1 VL with S32E, K35N, S57N, S61D, H98D
notes: Full length IgG4
B4: D24P scFv displayed on yeast (scFv, V domains shown)
VH: B1 VH with Y32Q, G54E
VL: B1 VL with K35N, S61I, H98D
notes: Aga2-anchored, VH-VL orientation; not shown: linker; SV5 tag
B5: B114P mutant expressed as full length IgG4 antibody (antibody, V domains shown)
VH: B1 VH with Y32Q, G54E, Y60M, V102D
VL: B1 VL with S32E, K35N, S57D, H98D
notes: Full length IgG4
B6: A104P mutant expressed as full length IgG4 antibody (antibody, V domains shown)
VH: B1 VH with Y32Q, G54E
VL: B1 VL with S32E, K35N, S57D, H98D
notes: Full length IgG4
B7: B124P mutant expressed as full length IgG4 antibody (antibody, V domains shown)
VH: B1 VH with Y32N, G54E, G62D
VL: B1 VL with S32Q, K35N, S57D, H98D
notes: Full length IgG4
B8: B23P scFv displayed on yeast (scFv, V domains shown)
VH: B1 VH with W33Y, Y60M
VL: B1 VL with K35N, L59R, H98D
notes: as for B4
B9: B34P scFv displayed on yeast (scFv, V domains shown)
VH: B1 VH with Y32N, G54E, G62D
VL: B1 VL with K35N, L59R, H98D
notes: as for B4
B10: A84P mutant expressed as full length IgG4 antibody (antibody, V domains shown)
VH: B1 VH with Y32Q, G54E, Y60M
VL: B1 VL with S32E, K35N, S57D, S61I, H98D
notes: Full length IgG4
B11: B104P mutant expressed as full length IgG4 antibody (antibody, V domains shown)
VH: B1 VH with Y32Q, G54D, G62D
VL: B1 VL with S32A, K35N, S57D, H98D
notes: Full length IgG4
B12: D74P scFv displayed on yeast (scFv, V domains shown)
VH: B1 VH with Y32Q, G56N, G62D
VL: B1 VL with S32A, K35N, S57D, H98D
notes: as for B4
B13: D14P mutant expressed as full length IgG4 antibody (antibody, V domains shown)
VH: B1 VH with Y32Q, G56D, G62D
VL: B1 VL with K35N, S57D, S61L, H98D
notes: Full length IgG4
B14: F54P mutant expressed as full length IgG4 antibody (antibody, V domains shown)
VH: B1 VH with Y32Q, G54E, Y60M, G66T
VL: B1 VL with S32E, K35N, S57D, H98D
notes: Full length IgG4
B15: H83P mutant expressed as full length IgG4 antibody (antibody, V domains shown)
VH: B1 VH with Y32Q, T58I, G62D
VL: B1 VL with K35N, S57D, H98D
notes: Full length IgG4
B16: A44P scFv displayed on yeast (scFv, V domains shown)
VH: B1 VH with Y32Q, G54E, G62D
VL: B1 VL with K35N, S57N, H98D
notes: as for B4
B17: B53P scFv displayed on yeast (scFv, V domains shown)
VH: B1 VH with Y32Q, G54E, T58I
VL: B1 VL with K35N, S57D, H98D
notes: as for B4
B18: D44P mutant expressed as full length IgG4 antibody (antibody, V domains shown)
VH: B1 VH with Y32Q, G54E, T58I
VL: B1 VL with S32E, K35N, S57D, T97S
notes: Full length IgG4

Assays:
[1] = target: human SCF248 (stem cell factor 248 isoform) expressed on mouse SI/SI4 cells (human), P21583; assay: cell-based or functional assay
[2] = target: T1, exon 6 peptide …; assay: direct ELISA on coated peptide, IgG4, read at 450 nm
Protocol: A direct enzyme-linked immunosorbent assay (ELISA) was performed to evaluate binding of the clones of Example 2 (referred to in all additional examples as “mutants”) to the Exon 6 peptide. The mutants were expressed as full length IgG4 antibodies.
The plate was incubated at 4° C. overnight. […] Both plates were washed with wash buffer twice. Then, the plates were blocked with blocking buffer for 1 hour at 37° C. The plates were then washed with wash buffer twice. […] The plate was covered and incubated for 1 hour at 37° C. The plates were then washed with wash buffer three times. The secondary antibody was added to the plates. The plates were covered and incubated for 1 hour at 37° C. The plates were then washed with wash buffer three times. 100 μL of detection substrate was added to each well of the plates. The plates were covered and incubated for 10-20 minutes at room temperature. Subsequently, 100 μL of stop solution was added to the plates. Each plate was read at an absorbance of 450 nm.
Reagents: Coating buffer contained 1.5M NaCl, 0.5M […], and 1.0N NaOH. Wash buffer contained 0.05% Tween-20 in PBS. Blocking buffer contained 2.0% normal goat serum in wash buffer. The dilution buffer was wash buffer and 2% FCS. The secondary antibody was a goat anti-human IgG HRP conjugate, purchased from Millipore (Catalogue Number: AP309P). The secondary antibody was diluted 1:1000. The detection substrate was prepared by dissolving 4 O-phenylenediamine dihydrochloride (OPD) tablets dissolved in 12 mL sterile distilled water. 5 μL of hydrogen peroxide (30% v/v) was added to the detection substrate immediately before adding substrate to the wells. The stop solution contained 0.5 M H₂SO₄.

[3] = target: T2, PE9413, C-terminal biotinylated peptide …; assay: yeast-displayed scFv, flow cytometry titration of biotinylated peptide
Protocol: The binding of the selected 48 clones described above to 170 nM of C-terminal biotinylated PE9413 was evaluated. The 24 clones with the highest binding signal were further evaluated for binding affinity. Each clone was incubated with increasing amounts of biotinylated PE9413, and stained with a fluorescently labeled anti-streptavidin antibody. Binding of the clone to PE9413 was analyzed by flow cytometry. A plot of concentration of PE9413 versus the median fluorescent signal of the yeast cell population that bound to PE9413 was used to estimate the binding affinity (KD) of each clone to C-terminal biotinylated PE9413.

human SCF248 (stem cell factor 248 isoform) expressed on mouse SI/SI4 cells (human), P21583, sequence (P21583 26-273): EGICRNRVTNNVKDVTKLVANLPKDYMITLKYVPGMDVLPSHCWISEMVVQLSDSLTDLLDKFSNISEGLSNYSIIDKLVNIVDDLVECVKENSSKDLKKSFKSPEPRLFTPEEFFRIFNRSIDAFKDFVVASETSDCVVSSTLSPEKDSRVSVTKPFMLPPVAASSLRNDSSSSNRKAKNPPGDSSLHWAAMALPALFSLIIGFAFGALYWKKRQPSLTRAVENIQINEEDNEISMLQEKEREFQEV

| Binder | CCL2 Expression as Percentage of Positive Control [1] | TGFβ Expression as Percentage of Positive Control [1] | absorbance at 0.1 ng/mL antibody [2] | absorbance at 0.5 ng/mL antibody [2] | absorbance at 1 ng/mL antibody [2] | absorbance at 5 ng/mL antibody [2] | absorbance at 100 ng/mL antibody [2] | absorbance at 1000 ng/mL antibody [2] | Kd [3] |
| --- | --- | --- | --- | --- | --- | --- | --- | --- | --- |
| B1 | 37% | 65.5% |  |  |  |  |  |  |  |
| B2 | 40.6% | 58.4% | 0.105 absorbance | 0.249 absorbance | 0.58 absorbance | 1.3 absorbance | 2.56 absorbance | 3 absorbance |  |
| B3 | 22.9% | 47.9% | 0.122 absorbance | 0.172 absorbance | 0.564 absorbance | 1.41 absorbance | 2.71 absorbance | 3.12 absorbance |  |
| B4 |  |  |  |  |  |  |  |  | 14.4 nM |
| B5 | 59.1% | 59.5% | 0.098 absorbance | 0.127 absorbance | 0.446 absorbance | 1.11 absorbance | 2.43 absorbance | 2.81 absorbance |  |
| B6 | 27.4% | 46.9% | 0.092 absorbance | 0.305 absorbance | 1.02 absorbance | 1.57 absorbance | 2.6 absorbance | 2.94 absorbance |  |
| B7 | 55.9% | 49.6% | 0.0985 absorbance | 0.183 absorbance | 0.629 absorbance | 1.32 absorbance | 2.4 absorbance | 2.76 absorbance |  |
| B8 |  |  |  |  |  |  |  |  | 5.3 nM |
| B9 |  |  |  |  |  |  |  |  | 5.06 nM |
| B10 | 35.6% | 65.8% | 0.131 absorbance | 0.193 absorbance | 0.56 absorbance | 1.48 absorbance | 2.67 absorbance | 3.14 absorbance |  |
| B11 | 31.7% | 43.9% | 0.0855 absorbance | 0.174 absorbance | 0.527 absorbance | 1.13 absorbance | 1.83 absorbance | 2.48 absorbance |  |
| B12 |  |  |  |  |  |  |  |  | 6.38 nM |
| B13 | 46.8% | 48.8% | 0.137 absorbance | 0.266 absorbance | 0.861 absorbance | 1.81 absorbance | 2.53 absorbance | 3.15 absorbance |  |
| B14 | 55.7% | 74.6% | 0.11 absorbance | 0.367 absorbance | 0.446 absorbance | 1.35 absorbance | 1.57 absorbance | 2.42 absorbance |  |
| B15 | 56.2% | 77.1% | 0.204 absorbance | 0.537 absorbance | 0.597 absorbance | 1.42 absorbance | 1.81 absorbance | 2.32 absorbance |  |
| B16 |  |  |  |  |  |  |  |  | 5.32 nM |
| B17 |  |  |  |  |  |  |  |  | 4.97 nM |
| B18 | 42.2% | 58.5% | 0.0895 absorbance | 0.207 absorbance | 0.744 absorbance | 1.98 absorbance | 2.16 absorbance | 2.9 absorbance |  |
